For assay [1], the target named is T1, human KLB / human FGFR1c complex on cells (human, UniProt Q86Z14 53-1044; P11362 22-822).
T1 construct: both receptors co-expressed on HEK293 (or L6) cells; also called FGFR1c/KLB complex; 293huKLB/huR1c
Description: radiolabeled ligand competition binding (iodinated FGF21) on HEK293 cells expressing human FGFR1c and human KLB.
Description: For the radioligand cell binding assay, HEK293 cells that stably co-expressing KLB and/or FGFR1c were placed into 96-well plate at a density of 100,000 to 200,000 cells per 0.2 mL in binding buffer (DMEM with 1% bovine serum albumin (BSA), 50 mM HEPES, pH 7.2, 0.1% sodium azide and 350 mM human IgG). […] Competition reactions with cells were incubated for 2 h at room temperature.

Assay [2] has as its target T1, human KLB / human FGFR1c complex on …. Description: cell-based or functional assay.
In assay [3] the target is T2, FGFR1b (human, UniProt P11362-19 22-376, limits assumed).
T2 construct: soluble protein in SPR and ELISA, whole receptor on L6 cells in the luciferase assay
T2 sequence (looked up): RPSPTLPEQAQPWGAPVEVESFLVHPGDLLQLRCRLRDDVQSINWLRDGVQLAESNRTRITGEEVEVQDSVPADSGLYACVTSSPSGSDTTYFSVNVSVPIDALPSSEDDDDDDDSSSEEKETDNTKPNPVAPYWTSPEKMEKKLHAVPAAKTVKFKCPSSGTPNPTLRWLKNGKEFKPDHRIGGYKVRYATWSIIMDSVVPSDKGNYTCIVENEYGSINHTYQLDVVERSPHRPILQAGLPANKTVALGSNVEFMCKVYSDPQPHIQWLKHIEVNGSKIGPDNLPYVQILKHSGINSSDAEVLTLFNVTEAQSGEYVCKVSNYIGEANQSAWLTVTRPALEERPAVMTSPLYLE
Description: SPR (BIACORE T100), antibody captured by anti-human Fc on a CM5 chip, FGFR1 ECD protein injected, 25 °C, 1:1 Langmuir fit.

B1: hFGF21 (ligand, human, UniProt Q9NSA1 29-209, looked up)
chain: HPIPDSSPLLQFGGQVRQRYLYTDDAQQTEAHLEIREDGTVGGAADQSPESLLQLKALKPGVIQILGVKTSRFLCQRPDGALYGSLHFDPEACSFRELLLEDGYNVYQSEAHGLPLHLPGNKSPHRDPAPRGPARFLPLPGLPPALPEPPGILAPQPPDVGSSDPLSMVGPSQGRSPSYAS
notes: also called recombinant FGF21
One may read the Kd as the equilibrium constant for the complex coming apart. A high value points to a looser complex. Molecule B1 showed a Kd in assay [1] of 5.3 nM. In addition, in assay [2], the “EC50 in GAL-ELK1 assay in HEK293 cells” value was 4.7 nM.

B2: YW182.2 (antibody, V domains shown)
VH: EVQLVESGGGLVQPGGSLRLSCAASGFTFTSTWISWVRQAPGKGLEWVGEIDPYDGDTYYADSVKGRFTISADTSKNTAYLQMNSLRAEDTAVYYCATEHFDAWVHYYVMDYWGQGTLVTVSS
VL: DIQMTQSPSSLSASVGDRVTITCRASQDVSTAVAWYQQKPGKAPKLLIYSASFLYSGVPSRFSGSGSGTDFTLTISSLQPEDFATYYCQQSYTTPPTFGQGTKVEIK
Broadly, the koff is the first-order rate constant of dissociation. Read a low koff as slow dissociation. Usually kon stands for the second-order rate constant of association. Consider B2, for which, in assay [3], the dissociation constant (Kd) stood at 1.13 nM, the koff worked out at 0.0022 s⁻¹ and the on-rate (kon) stood at 1.9e+06 M⁻¹ s⁻¹.

For the origin of these results see US20220064331A1 (Genentech, published 2022).
